Molecular target: TBP-hCGβ(20-190)
Experiment: sandwich immunoassay for the hCG heterodimer (anti-hCG β capture, anti-TSH α detection), COS-7 cotransfection of α and β fusions

TBP-hCGα(20-190) gave a Concentration (ng/ml) of heterodimer in hCG heterodimer assay of 38 ng/mL.

Source: patent EP1557432B1
